Test [1] deals with T1, human TNFR1, soluble recombinant protein (human, UniProt P19438 22-211, limits assumed, biotinylated in the BIAcore assays (coupling via primary amines)).
T1 construct: also called biotinylated TNFR1; human recombinant E. coli-expressed human TNFR1
T1 sequence (looked up): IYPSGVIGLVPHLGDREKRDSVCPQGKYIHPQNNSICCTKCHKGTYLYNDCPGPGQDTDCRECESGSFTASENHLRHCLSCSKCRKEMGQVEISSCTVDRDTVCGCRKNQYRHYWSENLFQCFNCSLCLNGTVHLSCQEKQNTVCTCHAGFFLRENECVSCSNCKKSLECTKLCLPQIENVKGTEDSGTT
Description: phage ELISA, plate coated with 1 nM TNFR1, anti-M13-HRP; trypsin 100 µg/ml 1 h room temp; phage input 3.52E+08. On the technique in general: An ELISA detects its analyte on a solid surface through an enzyme-linked reagent.

Test [2] addresses T1, human TNFR1, soluble recombinant protein. Briefly: phage ELISA, plate coated with 1 nM TNFR1, anti-M13-HRP; trypsin 100 µg/ml 1 h room temp; phage input 1.13E+10.
Test [3] shares this target. Description: phage ELISA, plate coated with 1 nM TNFR1, anti-M13-HRP; trypsin 0 µg/ml; phage input 1.41E+09.
The target is the same in test [4]. Briefly: phage ELISA, plate coated with 1 nM TNFR1, anti-M13-HRP; trypsin 100 µg/ml 1 h room temp; phage input 1.41E+09.
The target is the same in test [5]. Description: phage ELISA, plate coated with 1 nM TNFR1, anti-M13-HRP; trypsin 0 µg/ml; phage input 4.51E+10.
Test [6] shares this target. Description: phage ELISA, plate coated with 1 nM TNFR1, anti-M13-HRP; trypsin 0 µg/ml; phage input 5.64E+09.
Test [7] shares this target. Description: phage ELISA, plate coated with 1 nM TNFR1, anti-M13-HRP; trypsin 1 mg/ml 1 h room temp; phage input 4.51E+10.
For test [8] the target is unchanged. Description: phage ELISA, plate coated with 1 nM TNFR1, anti-M13-HRP; trypsin 0 µg/ml; phage input 2.26E+10.
Test [9] shares this target. Description: phage ELISA, plate coated with 1 nM TNFR1, anti-M13-HRP; trypsin 100 µg/ml 1 h room temp; phage input 5.64E+09.
Test [10] shares this target. Description: phage ELISA, plate coated with 1 nM TNFR1, anti-M13-HRP; trypsin 10 µg/ml 1 h room temp; phage input 3.52E+08.
Test [11] shares this target. Description: phage ELISA, plate coated with 1 nM TNFR1, anti-M13-HRP; trypsin 10 µg/ml 1 h room temp; phage input 1.41E+09.
Test [12] has the same target. Briefly: phage ELISA, plate coated with 1 nM TNFR1, anti-M13-HRP; trypsin 1 mg/ml 1 h room temp; phage input 1.41E+09.
For test [13] the target is unchanged. Description: phage ELISA, plate coated with 1 nM TNFR1, anti-M13-HRP; trypsin 1 mg/ml 1 h room temp; phage input 7.05E+08.
Test [14] shares this target. Briefly: phage ELISA, plate coated with 1 nM TNFR1, anti-M13-HRP; trypsin 10 µg/ml 1 h room temp; phage input 7.05E+08.
The target is the same in test [15]. Description: phage ELISA, plate coated with 1 nM TNFR1, anti-M13-HRP; trypsin 10 µg/ml 1 h room temp; phage input 2.82E+09.
Test [16] shares this target. Briefly: phage ELISA, plate coated with 1 nM TNFR1, anti-M13-HRP; trypsin 1 mg/ml 1 h room temp; phage input 5.64E+09.
For test [17] the target is unchanged. Description: phage ELISA, plate coated with 1 nM TNFR1, anti-M13-HRP; trypsin 1 mg/ml 1 h room temp; phage input 3.52E+08.
Test [18] has the same target. Description: phage ELISA, plate coated with 1 nM TNFR1, anti-M13-HRP; trypsin 10 µg/ml 1 h room temp; phage input 4.51E+10.
For test [19] the target is unchanged. Description: phage ELISA, plate coated with 1 nM TNFR1, anti-M13-HRP; trypsin 100 µg/ml 1 h room temp; phage input 4.51E+10.
For test [20] the target is unchanged. Briefly: phage ELISA, plate coated with 1 nM TNFR1, anti-M13-HRP; trypsin 0 µg/ml; phage input 3.52E+08.

Regarding DOM1h-131 displayed on phage, the phage ELISA read-out in test [1] is 0.084; in [2], 0.284; in test [3], 0.85; in test [4], 0.115; in test [5] it was 0.916; in test [6], 0.962. For the same substance, the phage ELISA read-out amounted to 0.284 in [7]; 0.944 in [8]; 0.196 in [9]; 0.213 in [10]; 0.409 in test [11]; 0.089 in test [12]. Besides, the phage ELISA read-out worked out at 0.084 in test [13]; 0.286 in [14]; 0.573 in test [15]; 0.133 in test [16]; 0.08 in [17]; 0.784 in [18]. The phage ELISA read-out in test [19] turned out to be 0.418; in test [20], 0.577.
